Test results: a protein production outcome set (Wang et al. 2014)

Test: label from the status in PepcDB records

Sequence | protein production
MKDYQKILVVVDPTTENQVALARAVTLASKSNAHVTVFLSIFDFSYEMTSILSSQEREAMRQGVIDQRVAWIQDLLAPYNHLGLNIDTQVIWHNRPFESIINHAIAGQYDLIVKGTHAHDKLKAVIFTPTDWHLMRKAPVPVLMVKDHDWPETGKILCAVNVATEDTDHQMLNGKIIEHAKDLAGKFAAEVHLVNGFPGTPVNLAIELPDFDAQTYNDTIRLQHEQRVQYLADAYGIDKQNCHVKEGLPEDVIPELAEQLDAELVILGTVGRTGFSAALIGNTAEHVIDSINCDLLAIKPDGYKSPLEEA | not failed
MRLAVLADIHGNADALEAVRADLALQSPDLVVNLGDCLSGPLEVERTADLLMEANWPAVRGNHDRWLVEPEGGTVWETDARPRLSAAQRDWLAALPATRVEAGAFLCHATPGSDLIYWLHHVTPEGHVAPSPLERISRFADGITERLILCGHTHLARSVRLPDGRLVVNPGSVGCPGYEDDAPVPHRVESGTPAACYAILDSKGGDWRVTFRQIPYDHDRAARLAGRYGRPDWESVLATGWLPAQKGQGAL | failed
MNWVTHKPTFEFDNFSPFIRANTAWLGHLEFAYDLVRFEKPEILVELGTHMGASFFSFCQGVKDGGLATKCFAVDTWTGDGHTGPYGEGVFHIVDKVVKTSYPNIGNLIKSTFDEAVDQFQDGTINLLHIDGYHTYEAVSHDYKTWLPKLADNGIVLFHDIEVKDRNFGVYKFWDEVKAKYPHFQFQHSYGLGVLFPKGCSDRFKEILKNKEEIQDMYKLEHHHHHH | not failed
MGRLFVVNLEGKIYSCKHCKTHLATYEDIISKSFHCKHGKAYLFNKVANVSIGETEERLMMTGKHTVADIFCVSCGSIVGWKYETAHEKNQKYKEGKSVLERFKISGPDGSNYWVSSHGRHIGGSDADDA | failed
MPIQRREFIAAIGTGALATTAGCAQSGEGSGQTEAETEAESGGGGQPGVAGETLTLTTTTSTYDTGLLDEIHPDFEDMYGVSVDAVAQGTGAALESARNGDSDIVMVHARGLEDDFMRNGYGINRRDLMFNDFVIVGPEDDPAGIQGMGSATEALTTIAESESQFVSRGDNSGTHTKELNLWEAAGTEPGGNWYQETGTGMGEALNIANQQGAYTLSDRGTYISQRSEIDLVILVQGPIEDGPEILANPYGIMAVNPGVHDNANYDLAMAYIGWITSPGTQDAISNYQVNGEQLFFPEAVSEDPNFQQYVPEGWSSDAGE | failed
MALILTFLGKSGVARTKIAIAAAKLLASQGKRVLLAGLAEPVLPLLLEQTLTPDPQQIAPNLEVVQFQSSVLLERNWEEVKKLEAQYLRTPIIKEVYGQELVVLPGMDSALALNAIREYDASGKYDAIVYDGTGDAFTLRMLGLPESLSWYVRRFRQLFVNSDLGKTIAESPLIQPLISSFFNVNWTADNFAQPTNQVNNFLDKGKEALADPKRVAAFLVTTADPLEVVSVRYLWGSAQQIGLTIGGVIQVSSQTEGDLSAEFTPLSVTVVPDVTKGDWQPLIDALPNFVEQAEQAPKPITIDTHNRQVRLFLPGFDKKQVKLTQYGPEVTVEAGDQRRNIFLPPALSGRPITGAKFQNNYLIISFLEHHHHHH | not failed
MHIPDGIIPLWQCAVYWAVALINIGIFFYIFSKKPQKERRIVGTGLFAAAAAAVSSISVPSPFGVPVHFFLIPLAAILLGPLTAVIVATLCLVIQFFILGMGGLTSMGANILTMGIGLGVGTYAVYSVVSELDRSLAVFTATFFGIMVATVFHIMILLAAGVAGPEMLMATLIPFYIFVGVIEGAANIFIVSFLERMKPELTMMERV | failed
MWRDTMSAFLGELIGTALLIVLGGGVCAGVSLKKSFAKDSGWIVITMGWGLAVAVAAYAVGSISGAHLNPALTIGLAFKGAFPWSDVPGYIVAQMIGAIIGAVIVYLHYLPHWKETEDPGTKLGVFATGPAIPNTFANLLSEMIGTFVLVFGILAIGANKFADGLNPFIVGFLIVSIGLSLGGTTGYAINPARDLGPRIAHFFLPIAGKGGSNWKYAWIPVVGPILGGSLAGLFHQVVFEGKQNSALIYVIIATVIVLAISYMTSKKSGSNTNSRKVA | failed
MATPSGIVRFPGAGCVVEFMQGNRPQIAWVMEEQGGRLRLFLPNRRETKLAAARLLPWAGPRYDGERSRDDMVALLEEHRQRRDTREADIQPLELWEMVQGEVEQASVEWFAELLGETPGVDEVAAMGRALLGCKTHFKFHPPDFEVYDAAKVEARMVEMEAARVREALVEAGQAFIKVLWDVHCRRRTMPLPSSSEMPPAEVAERLATLLRTRMADPDDHDSDSVWKQVTKGLPDDAHMPLHLAAAWGIVPVHHNFWMDRAGYAPGDEWAIDHVDEIDALMKRVEALREPLVDGTFISIDSSTTRDIDDAFDISPSPEGGWILRLVLASPVTGWDFDGPLDRAVLRRATSIYLPERSHHMMPETLGTDAYSLLAGQDRPALLVTFDIAPDGSLRSTTPATGWVRLAANLTYTECEACLTGEGDAGRAAPHADRLALADALARVRQQLRVAAGAVIIERDDPKVTLEGEGCAVKVHVAPPDETPRAQLLVSEMMILANAAIASWGAERGITLLHRTQDVGIPREYAGVWNQPHDIARVVKALAPAHLEPVAKPHAGIAVPAYSPVTSPLRRYPDLVNEAQVIHYLTHGTPRWSREEVEAMLPLLGARLDAAGQVQRFRPRYWKLFYIRQQGDKAWHEAVVTEENDAFVTISLPEVQIFVRGRRSTFGDKVYPGQHFNVRLGKVHPLNNEIQIVDAMEG | failed
LENDRTTFRIRNLDSGEIIWSGMGAVYPVYSPSFDHAADAFAFAFSSPADPPEIHLLRDAETKSSINSHLDGVSPYPAEIVEWKAKDGEDLYGILRLIDPKNPLIVYIHGGPTSFSYASFLDRTSIYLGYGFNVFAPNYRGSVGKGRRYAELNVGDLGGKDFDDVISGIEFLKNTGKIATDR | failed
MKFSVLMSLYIKENPQFLRECFESLVAQTRQADEIVLVFDGVVTPDLEFVVTEFETKLPLKLVKLPQNRGLGKALNEGLLHCDYDWVFRMDTDDICVPDRFEKQVAFIEQHPESIIFGGQIAEFGKNVNDIVAYRNVPTSAQEIIKFTQKRCPFNHMTVAYQKSAVINCGGYEDLQEDYYLWIKLVAQGLYMANLPDILVYARVGNGMVLEHHHHHH | not failed
MPVLVASDLDRTLIYSAAALGLTMPDLRAPRLLCVEVYESKPLSYLTETAAQLLTDLGDSALFVPTTTRTRKQYQRINLPGPAPKYAICANGGHLLVDGVSDPGWHARVTARLADECASLAEVRDHLTNTADPLWVRKHRVAEDLFAYLVVERDLLPQDWVKELAVWAENRGWTVSLQGRKIYAVPKPLTKSAAMHEVARRTGAELTLAAGDSLLDADLLLAADRGWRPGHGELADSGWTAPTISALPERGVLAGERILREFLRAVRPAR | failed
KGGVWRNTEDEILKAAVMKYGKNQWSRIASLLHRKSAKQCKARWYEWLDPSIKKTEW | not failed
HSGEDLPMVAPGNVRVNVVNSTLAEVHWDPVPLKSIRGHLQGYRIYYWKTQSSSKRNRRHIEKKILTFQGSKTHGMLPGLEPFSHYTLNVRVVNGKGEGPASPDRVFNTPEG | not failed
MEGFVLAGTSSGVGKTVATLATLTALEDAGYQPQPAKAGPDFIDPSHHEALVDTPSRTLDPWLAGEDGMRRTYWRGTGDICVVEGVMGLYDGTKTSTAAVAEGLDLPVVLVVDAKAGMESVAATALGFAQYADRIGVDIEVAGILAQRAHGGRHADGIRDALPEDLTYFGRIPPMSDLEIPDRHLGLHMGSEAGLDRDALSTAAETIDIERLVETARAPPEVATTERNTGDSPADRRVAVAQDSAFCFIYPSVLERLRSEASVEPFSPVAGDSVPDADAIYLPGGYPELHGESLETGGTLDEIAVRAADGVPVYGECGGLMALSESLTTTDGDTYEMAGVLPADIEMQDRYQALDHVELEARADTVAATSGAHRRGHEFHYSAATLGSDASFAFDMVRGDGIDGEHDGLTEYSTIGTYCHCHGESGAFDRLLAVPSKDILEHHHHHH | failed
MLTVIAEIRTRPGQHHRQAVLDQFAKIVPTVLKEEGCHGYAPMVDCAAGVSFQSMAPDSIVMIEQWESIAHLEAHLQTPHMKAYSEAVKGDVLEMNIRILQPGI | not failed
MKKRIILLLAVIIAAAAAGVAFYVAKDKGHEKAADVSVNTESGDELLVSITDTDLLTKYYENDKVIHEEKLTSYPAFALDQKQQVLYYTGNNEQNEMRLFKLDLKSHKKTMLYKGAESADSLFLSKDRSTIYFRLGKADESNFRIAAFDLKTKKYKNLYPAANDQDDTVSSFFYNQKNDSFALLHYSVEEDYKKTDEANEKGIDPEPTTIHFAEGRQNKFNELKSLNQFISDIAVSDDDKRILFTSYTQKGTEQTASIQMLNADTKKYESIISNQKSFKLLIDAQPQFSKDGKNIYFLAEAKGAKKLKDETGREAKVRTIYSYSLENKTFKKVWENPNGIINSFFVIN | failed
